Results reported in the supplement of paper PMC11780869.

System: Bacillus subtilis
Assay: cleaved RNA product abundance (RNA/gDNA barcode ratio) relative to median wild-type variant (ratio to wild type); higher = more accumulation of the downstream cleavage product
Settings: cleavage site: cggR-gapA (positions -7 to +36 mutated)
Experimental: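 MPRA in B. subtilis. Mutagenized RNase Y cleavage-site regions (9% mutation rate) were inserted into a barcoded reporter mRNA (truncated aprE or tetM). Cells were grown in LB at 37°C to OD600 0.3. The cleaved RNA isoform was gel-purified and its barcodes counted; the RNA:gDNA barcode ratio was normalised to the median wild-type variant, and the median over barcodes is reported per variant. The printed sequence is the variable window only; the reporter flanks are not printed.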

[1] = experiment (reporter, strain, medium): exp 4a: truncated aprE reporter, strain BJT201 with 2% xylose (RNase J1 expressed)
[2] = experiment (reporter, strain, medium): exp 2b: truncated aprE reporter, strain BJT200

Sequence	cleaved RNA product abundance [1]	cleaved RNA product abundance [2]	cleaved RNA product abundance (experiment (reporter, strain, medium): exp 6: tetM reporter, strain 168)
ACAGACGAAGGAGCCGCAAAAAAGTTATTCAGGGATGAATAATCCCTCAATATAAATATCTCTCACTTATTTAAA	0.962	–	–
ACAGACGAAGGAGCCGCAAAAAAGTTATTTAGGGATGAATAATCCCTCAATATAAATATCTCTCACTTATTTAAA	0.552	–	–
ACAGACGAAGGAGCCGCAAAAAAGTTCTTAAGGGATGAATAATCCCTCAATATAAATATCTCTCACTTATTTAAA	0.218	–	–
ACAGACGAAGGAGCCGCAAAAAAGTTGTTAAGGGATGAATAATCCCTCAATATAAATATCTCTCACTTATTTAAA	0.355	0.388	–
ACAGACGAAGGAGCCGCAAAAAAGTTTTTAAGGGATGAATAATCCCTCAATATAAATATCTCTCACTTATTTAAA	0.435	0.281	–
ACAGACGAAGGAGCCGCAAAAAATTTATTAAGCGATGAATAATCCCTCAATATAAATATCTCTCACTTATTTAAA	0.113	–	–
ACAGACGAAGGAGCCGCAAAAAATTTATTAAGGGATGAATAATCCCTCAATATAAATATCTCTCACTTATTTAAA	0.66	1.19	–
ACAGACGAAGGAGCCGCAAAAACGTTATTAAGGGATGAATAATCCCTCAATATAAATATCTCTCACTTATTTAAA	1.04	–	–
ACAGACGAAGGAGCCGCAAAAAGGTTATTAAGGGATGAATAATCCCTCAATATAAATATCTCTCACTTATTTAAA	1.68	–	–
ACAGACGAAGGAGCCGCAAAAATGTTATTAAGGGATGAATAATCCCTCAATATAAATATCTCTCACTTATTTAAA	0.983	–	–
ACAGACGAAGGAGCCGCAAAACAGTTATTAAGGGATGAATAATCCCTCAATATAAATATCTCTCACTTATTTAAA	0.897	0.865	–
ACAGACGAAGGAGCCGCAAAAGAAGTTATTAAGGGATGAATAATCCCTCAATATAAATATCTCTCACTTATTTAA	1.06	–	–
ACAGACGAAGGAGCCGCAAAATAGTTATTAAGGGATGAATAATCCCTCAATATAAATATCTCTCACTTATTTAAA	0.703	–	–
ACAGACGAAGGAGCCGCAAACAAATTATTAAGGGATGAATAATCCCTCAATATAAATATCTCTCACTTATTTAAA	0.696	0.711	–
ACAGACGAAGGAGCCGCAAACAACTTATTAAGGGATGAATAATCCCTCAATATAAATATCTCTCACTTATTTAAA	–	0.172	–
ACAGACGAAGGAGCCGCAAACAAGATATTAAGGGATGAATAATCCCTCAATATAAATATCTCTCACTTATTTAAA	0.827	–	–
ACAGACGAAGGAGCCGCAAACAAGGTATTAAGGGATGAATAATCCCTCAATATAAATATCTCTCACTTATTTAAA	1.23	–	–
ACAGACGAAGGAGCCGCAAACAAGTAATTAAGGGATGAATAATCCCTCAATATAAATATCTCTCACTTATTTAAA	0.214	0.177	–
ACAGACGAAGGAGCCGCAAACAAGTGATTAAGGGATGAATAATCCCTCAATATAAATATCTCTCACTTATTTAAA	0.27	0.223	–
ACAGACGAAGGAGCCGCAAACAAGTTAATAAGGGATGAATAATCCCTCAATATAAATATCTCTCACTTATTTAAA	0.274	–	–
ACAGACGAAGGAGCCGCAAACAAGTTACTAAGGGATGAATAATCCCTCAATATAAATATCTCTCACTTATTTAAA	–	0.169	–

Sequence	cleaved RNA product abundance [1]	cleaved RNA product abundance [2]	cleaved RNA product abundance (experiment (reporter, strain, medium): exp 6: tetM reporter, strain 168)
ACAGACGAAGGAGCCGCAAACAAGTTATAAAAGGATGAATAATCCCTCAATATAAATATCTCTCACTTATTTAAA	–	0.139	–
ACAGACGAAGGAGCCGCAAACAAGTTATAAAGGGATGAATAATCCCTCAATATAAATATCTCTCACTTATTTAAA	0.408	–	–
ACAGACGAAGGAGCCGCAAACAAGTTATGAAGGGATGAATAATCCCTCAATATAAATATCTCTCACTTATTTAAA	0.239	–	–
ACAGACGAAGGAGCCGCAAACAAGTTATTAAAGGATGAATAATCCCTCAATATAAATATCTCTCACTTATTTAAA	0.116	0.121	–
ACAGACGAAGGAGCCGCAAACAAGTTATTAAAGGATGAATAATCCCTCATTATAAATATCTCTCACTTATTTAAA	0.115	–	–
ACAGACGAAGGAGCCGCAAACAAGTTATTAAATGATGAATAATCCCTCAATATAAATATCTCTCACTTATTTAAA	0.101	–	–
ACAGACGAAGGAGCCGCAAACAAGTTATTAACGGATGAATAATCCCTCAATATAAATATCTCTCACTTATTTAAA	0.0915	0.111	–
ACAGACGAAGGAGCCGCAAACAAGTTATTAAGAGATGAATAATCACTCAATATAAATATCTCTCACTTATTTAAA	0.126	0.106	–
ACAGACGAAGGAGCCGCAAACAAGTTATTAAGAGATGAATAATCCCTCAATATAAATATCTCTCACTTATTTAAA	0.118	0.0959	–
ACAGACGAAGGAGCCGCAAACAAGTTATTAAGCGATGAATAATCCCTCAATATAAATATCTCTCACTTATTTAAA	0.0647	0.0729	–
ACAGACGAAGGAGCCGCAAACAAGTTATTAAGGAATGAATAATCCCTCAATATAAATATCTCTCACTTATTTAAA	0.123	0.115	0.139
ACAGACGAAGGAGCCGCAAACAAGTTATTAAGGGAAGAATAATCCCTCAATATAAATATCTCTCACTTATTTAAA	0.558	–	–
ACAGACGAAGGAGCCGCAAACAAGTTATTAAGGGACGAATAATCCCTCAATATAAATATCTCTCACTTATTTAAA	0.279	–	–
ACAGACGAAGGAGCCGCAAACAAGTTATTAAGGGATAAATAATCCCTCAATATAAATATCTCTCACTTATTTAAA	0.649	–	–
ACAGACGAAGGAGCCGCAAACAAGTTATTAAGGGATCAATAATCCCTCAATATAAATATCTCTCACTTATTTAAA	0.443	–	–
ACAGACGAAGGAGCCGCAAACAAGTTATTAAGGGATGAAAAATCCCTCAATATAAATATCTCTCACTTATTTAAA	0.359	–	–
ACAGACGAAGGAGCCGCAAACAAGTTATTAAGGGATGAACAATCCCTCAATATAAATATCTCTCACTTATTTAAA	0.451	–	–
ACAGACGAAGGAGCCGCAAACAAGTTATTAAGGGATGAATAAACCCTCAATATAAATATCTCTCACTTATTTAAA	0.38	0.29	–
ACAGACGAAGGAGCCGCAAACAAGTTATTAAGGGATGAATAATACCTCAATATAAATATCTCTCACTTATTTAAA	0.12	0.107	–
ACAGACGAAGGAGCCGCAAACAAGTTATTAAGGGATGAATAATCACTCAATATAAATATCTCTCACTTATTTAAA	0.127	–	–
